Measured values published in patent US20210155689A1 (SHANGHAI PHARMAEXPLORER, published 2021).

B1: 105F1E10 mouse-human chimeric antibody (antibody, V domains shown)
VH: EVQLQQSGPELVKPGASVKMSCRASGYTFTDFKMHWMKQSHGKSLEWIGYIAPNNGGTAYNQKFRGKATLTVNESSNTAYMELRSLTSEDSAVYYCVDWDDVDYWGQGTTLTVSS
VL: DIKMTQSPSSMYASLGERVTITCKASQDINSYLSWFQQKSGKSPKTLIYRANRLVDGVPSRFSGSGSGQDYSLTISSLEYEDMGIYYCLQYVEFPLTFGAGTKLELK
notes: also called mAb009-105F1E10
B2: 105F1E10 (LAG-3 mouse-human chimeric antibody) (antibody, V domains shown)
VH: EVQLQQSGPELVKPGASVKMSCRASGYTFTDFKMHWMKQSHGKSLEWIGYIAPNNGGTAYNQKFRGKATLTVNESSNTAYMELRSLTSEDSAVYYCVDWDDVDYWGQGTTLTVSS
VL: DIKMTQSPSSMYASLGERVTITCKASQDINSYLSWFQQKSGKSPKTLIYRANRLVDGVPSRFSGSGSGQDYSLTISSLEYEDMGIYYCLQYVEFPLTFGAGTKLELK
B3: 405B8H3 (LAG-3 mouse-human chimeric antibody) (antibody, V domains shown)
VH: QVQLQQSGAELVRPGASVTLSCKASGYTFTDYEMHWVKQTPVHGLEWIGATDPETGNSAYNQKFKGKAIMTADKSSSTAYMELRSLTSEDSAVYYCISTGWNDWGQGTSLTVSS
VL: DIKMTQSPSSMYASLGERVTITCKASQDINSYLSWFQQKPGKSPKTLIYRADRLLDGVPSRFSGSGSGQDYSLTISSLEYGDMGIYYCLQYDEFPYTFGGGTKLEIK
notes: also called mouse-human chimeric antibody 405B8H3
B4: 405B8H3 mouse-human chimeric antibody (antibody, V domains shown)
VH: QVQLQQSGAELVRPGASVTLSCKASGYTFTDYEMHWVKQTPVHGLEWIGATDPETGNSAYNQKFKGKAIMTADKSSSTAYMELRSLTSEDSAVYYCISTGWNDWGQGTSLTVSS
VL: DIKMTQSPSSMYASLGERVTITCKASQDINSYLSWFQQKPGKSPKTLIYRADRLLDGVPSRFSGSGSGQDYSLTISSLEYGDMGIYYCLQYDEFPYTFGGGTKLEIK
notes: also called mAb103-405B8H3
B5: 409D4E10 (LAG-3 mouse-human chimeric antibody) (antibody, V domains shown)
VH: QVQLQQSGAELVRPGASVTLSCKASGNTFTDYEMHWVKQTPVHGLEWIGATDPETDNTAYNQKFKGKAILTTDKSSSTAYMELRSLTSEDSAVYYCITSGWNDWGQGTSLTVSS
VL: DIKMTQSPSSMYASLGERVTITCKASQDINSYLSWFQQKPGKSPKTLIYRANRLLDGVPSRFSGSGSGQDYSLTISSLEYEDMGIYYCLQYNEFPYTFGGGTKLEIK
B6: 409B11E12 (LAG-3 mouse-human chimeric antibody) (antibody, V domains shown)
VH: QVQLQQSGAELVRPGASVTLSCKASGYTFTDYEMHWVKQTTVHGLEWIGATDPETSYSAYNQKFKGKAILTADKSSSTAYMELRSLTSEDSAVYYCIATGWNDWGQGTSLTVSS
VL: DLKMTQSPSSMYASLGERVTITCKASQDINSYLSWFQQKPGKSPKTLIYRANRLLDGVPSRFSGSGSGQDYSLTISSLEYEDMGIYYCLQYDEFPYTFGGGTKLEIK
B7: 556F6B8 mouse-human chimeric antibody (antibody, V domains shown)
VH: RVQLKQSGPGLVQPSQSLSITCTVSGFSLIKYGVHWVRQSPGEGLEWLGVIWRGGITDYNAAFMSRLSITKDNSKSQVFFKMNSLQADDTAIYYCAKWDGPLAMDYWGQGTSVTVSS
VL: DIVMTQSHKFLSTSVGDRVSITCKASQDVGTTVAWYQQKPGQSPKLLIYWASTRHTGVPDRFTGSGSGTDFTLTISNVQSEDLADYFCQQYSSYPYTFGGGTKLEIK
notes: also called mAb123-556F6B8; 556F8B8
B8: 556F6B8 (LAG-3 mouse-human chimeric antibody) (antibody, V domains shown)
VH: RVQLKQSGPGLVQPSQSLSITCTVSGFSLIKYGVHWVRQSPGEGLEWLGVIWRGGITDYNAAFMSRLSITKDNSKSQVFFKMNSLQADDTAIYYCAKWDGPLAMDYWGQGTSVTVSS
VL: DIVMTQSHKFLSTSVGDRVSITCKASQDVGTTVAWYQQKPGQSPKLLIYWASTRHTGVPDRFTGSGSGTDFTLTISNVQSEDLADYFCQQYSSYPYTFGGGTKLEIK
notes: also called 556F8B8

What was measured:
[1] = molecular target: T1, human LAG-3 on cells (HEK293-hLAG-3 stable cell line) (human, UniProt P18627 23-525); assay: cell-based or functional assay
T1 sequence: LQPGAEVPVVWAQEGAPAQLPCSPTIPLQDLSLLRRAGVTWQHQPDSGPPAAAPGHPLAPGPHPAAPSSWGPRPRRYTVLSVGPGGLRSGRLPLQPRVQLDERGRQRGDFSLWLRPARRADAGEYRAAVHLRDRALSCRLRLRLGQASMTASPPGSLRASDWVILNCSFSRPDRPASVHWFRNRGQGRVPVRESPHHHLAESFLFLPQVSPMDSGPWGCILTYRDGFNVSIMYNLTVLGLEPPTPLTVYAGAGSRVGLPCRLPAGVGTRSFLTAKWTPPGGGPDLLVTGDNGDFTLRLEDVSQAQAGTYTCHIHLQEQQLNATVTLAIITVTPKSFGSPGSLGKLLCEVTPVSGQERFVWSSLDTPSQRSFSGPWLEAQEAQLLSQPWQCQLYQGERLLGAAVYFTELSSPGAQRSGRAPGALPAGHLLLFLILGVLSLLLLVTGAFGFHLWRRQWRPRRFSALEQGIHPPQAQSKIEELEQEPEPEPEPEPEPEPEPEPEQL

[2] = molecular target: T2, LAG-3-hFc protein (human LAG-3 extracellular region with hFc tag) (human, UniProt P18627 23-450); assay: FACS, inhibition of LAG-3-hFc binding to MHC II on Raji cells, antibody 7.407 nM
T2 construct: also called hLAG-3-hFc; LAG-3 protein; not shown: human IgG Fc fragment (hFc) of the pCpC vector
T2 sequence: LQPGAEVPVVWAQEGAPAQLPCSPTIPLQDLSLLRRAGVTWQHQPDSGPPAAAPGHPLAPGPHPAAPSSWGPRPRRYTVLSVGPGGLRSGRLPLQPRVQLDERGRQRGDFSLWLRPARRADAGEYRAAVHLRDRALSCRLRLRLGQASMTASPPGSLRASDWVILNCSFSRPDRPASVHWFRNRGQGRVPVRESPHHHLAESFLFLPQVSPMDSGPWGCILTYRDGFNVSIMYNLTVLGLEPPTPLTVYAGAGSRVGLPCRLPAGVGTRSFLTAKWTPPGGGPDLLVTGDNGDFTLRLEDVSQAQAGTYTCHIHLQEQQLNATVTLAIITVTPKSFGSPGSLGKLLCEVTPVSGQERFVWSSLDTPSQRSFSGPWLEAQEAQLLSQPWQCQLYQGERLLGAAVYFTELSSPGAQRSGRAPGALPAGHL
Procedure: The FACS reaction plate incubating the Raji cells was centrifuged to discard the supernatant. The above mixture was added as 100 μl per well to Raji cells and incubated on ice for 1-2 hours. The plate was washed twice with blocking solution (PBS, 2% fetal bovine serum) by centrifugation, added with 100 microliters of fluorescent (Alexa 488)-labeled secondary antibodies per well, and incubated on ice for 1.0 hours. The plate was washed 2-3 times by centrifugation with blocking solution (PBS, 2% fetal bovine serum), added with 100 microliters of PBS per well to suspend cells, and detected using FACS (FACS Calibur, BD) and the results were analyzed. Wherein, the IgG control was murine IgG, and the data in the table is the inhibition rate (%).

[3] = molecular target: T3, mouse LAG-3 protein with hFc tag (mLAG-3-hFc protein) (mouse; human, UniProt Q61790 24-442); assay: ELISA, mLAG-3-hFc coated; 0.0067 nM
T3 construct: Made in HEK293 cells; also called mouse LAG-3 extracellular domain protein; not shown: human IgG Fc fragment (hFc) of the pCpC vector
T3 sequence: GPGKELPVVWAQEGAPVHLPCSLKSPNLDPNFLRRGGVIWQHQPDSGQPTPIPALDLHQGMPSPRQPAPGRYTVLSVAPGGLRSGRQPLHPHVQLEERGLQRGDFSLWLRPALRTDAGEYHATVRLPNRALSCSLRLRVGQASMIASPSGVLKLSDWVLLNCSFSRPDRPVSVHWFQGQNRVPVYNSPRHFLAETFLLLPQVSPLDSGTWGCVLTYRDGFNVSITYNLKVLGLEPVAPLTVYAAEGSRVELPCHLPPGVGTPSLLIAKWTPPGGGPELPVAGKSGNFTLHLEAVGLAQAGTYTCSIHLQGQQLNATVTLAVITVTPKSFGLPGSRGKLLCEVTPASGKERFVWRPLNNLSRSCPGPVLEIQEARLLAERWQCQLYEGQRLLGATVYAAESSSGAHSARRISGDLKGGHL
Procedure: (§1) The plate was sealed with plastic film and incubated overnight at 4° C. The plate was washed 2 times with the plate washing solution (PBS+0.01% Tween20) on the next day, and added with the blocking solution (PBS+0.01% Tween20+1% BSA) and blocked at room temperature for 1-2 hours. The blocking solution was poured out, and the plate was added with 50-100 μl of the antibody sample to be tested to each well, incubated at 37° C. for 1-2 hours, and washed 2-3 times with a plate washing solution (PBS+0.01% Tween20). HRP (horseradish peroxidase) labeled secondary antibody was added, and the plate was incubated at 37° C. for 1-2 hours, and washed 2-3 times with a plate washing solution (PBS+0.01% Tween20). 100 μl of TMB substrate was added to each well. After incubated at room temperature for 15-30 minutes, the plate was added with 100 μl of stop solution (1.0N HCl) to each well.

[4] = molecular target: T4, hFc tagged monkey LAG-3 protein (cLAG-3-hFc protein) (monkey; human); assay: ELISA, cLAG-3-hFc coated; 0.0067 nM
T4 construct: Made in HEK293 cells; also called monkey LAG-3 extracellular domain protein; not shown: human IgG Fc fragment (hFc) of the pCpC vector
T4 chain: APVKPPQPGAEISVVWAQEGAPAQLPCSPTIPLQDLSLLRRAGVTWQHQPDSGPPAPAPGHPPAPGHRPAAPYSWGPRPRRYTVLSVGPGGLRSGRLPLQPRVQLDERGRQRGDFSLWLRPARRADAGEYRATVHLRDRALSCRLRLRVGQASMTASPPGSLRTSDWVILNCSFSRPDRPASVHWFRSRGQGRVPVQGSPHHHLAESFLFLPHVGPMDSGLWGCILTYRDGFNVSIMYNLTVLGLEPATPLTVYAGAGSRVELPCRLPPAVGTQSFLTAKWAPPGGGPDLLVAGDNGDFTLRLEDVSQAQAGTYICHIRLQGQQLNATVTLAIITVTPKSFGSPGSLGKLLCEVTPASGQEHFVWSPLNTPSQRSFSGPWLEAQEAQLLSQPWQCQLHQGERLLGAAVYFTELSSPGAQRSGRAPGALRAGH
Procedure: as §1

Row | Binder | IL-2 production, SEB-dependent PBMC stimulation test, 0.0032 ug/ml, N = 1 [1] | IL-2 production, SEB-dependent PBMC stimulation test, 0.0032 ug/ml, N = 2 [1] | IL-2 production, SEB-dependent PBMC stimulation test, 0.016 ug/ml, N = 1 [1] | IL-2 production, SEB-dependent PBMC stimulation test, 0.016 ug/ml, N = 2 [1] | IL-2 production, SEB-dependent PBMC stimulation test, 0.08 ug/ml, N = 1 [1] | IL-2 production, SEB-dependent PBMC stimulation test, 0.08 ug/ml, N = 2 [1] | IL-2 production, SEB-dependent PBMC stimulation test, 0.4 ug/ml, N = 1 [1] | IL-2 production, SEB-dependent PBMC stimulation test, 0.4 ug/ml, N = 2 [1] | IL-2 production, SEB-dependent PBMC stimulation test, 2 ug/ml, N = 1 [1] | IL-2 production, SEB-dependent PBMC stimulation test, 2 ug/ml, N = 2 [1] | IL-2 production, SEB-dependent PBMC stimulation test, 10 ug/ml, N = 1 [1] | IL-2 production, SEB-dependent PBMC stimulation test, 10 ug/ml, N = 2 [1] | Inhibition rate (%) [2] | OD450 [3] | OD450 [4]
1 | B1 | 2340 pg/mL | 1840 pg/mL | 1720 pg/mL | 1520 pg/mL | 2130 pg/mL | 1770 pg/mL | 2550 pg/mL | 2570 pg/mL | 3970 pg/mL | 3660 pg/mL | 3740 pg/mL | 3650 pg/mL | 67% | – | –
2 | B2 | – | – | – | – | – | – | – | – | – | – | – | – | – | 0.09 OD450 | 0.26 OD450
3 | B3 | – | – | – | – | – | – | – | – | – | – | – | – | – | 0.08 OD450 | 0.46 OD450
4 | B4 | 2000 pg/mL | 1600 pg/mL | 1880 pg/mL | 1770 pg/mL | 1800 pg/mL | 1840 pg/mL | 2790 pg/mL | 3240 pg/mL | 2700 pg/mL | 2850 pg/mL | 3280 pg/mL | 3160 pg/mL | 95.1% | – | –
5 | B5 | – | – | – | – | – | – | – | – | – | – | – | – | – | 0.09 OD450 | 0.64 OD450
6 | B6 | – | – | – | – | – | – | – | – | – | – | – | – | – | 0.07 OD450 | 0.39 OD450
7 | B7 | 1780 pg/mL | 1910 pg/mL | 1430 pg/mL | 2010 pg/mL | 1780 pg/mL | 1980 pg/mL | 2570 pg/mL | 2810 pg/mL | 3800 pg/mL | 4010 pg/mL | 2610 pg/mL | 3260 pg/mL | 82.7% | – | –
8 | B8 | – | – | – | – | – | – | – | – | – | – | – | – | – | 0.14 OD450 | 0.46 OD450
